Experimental data reported in patent US20230357387A1 (published 2023).
Where a chain is given by its changes, count along the chain named. Blank lines part the entries; values can stand above or below the binder they belong to.

Key:
[1] = target: T1, ZIP4 as tested by flow cytometry (human, UniProt Q6P5W5 23-647); test: flow cytometry-based reactivity screening, 63A11 lineage (FIG. 7)
T1 sequence: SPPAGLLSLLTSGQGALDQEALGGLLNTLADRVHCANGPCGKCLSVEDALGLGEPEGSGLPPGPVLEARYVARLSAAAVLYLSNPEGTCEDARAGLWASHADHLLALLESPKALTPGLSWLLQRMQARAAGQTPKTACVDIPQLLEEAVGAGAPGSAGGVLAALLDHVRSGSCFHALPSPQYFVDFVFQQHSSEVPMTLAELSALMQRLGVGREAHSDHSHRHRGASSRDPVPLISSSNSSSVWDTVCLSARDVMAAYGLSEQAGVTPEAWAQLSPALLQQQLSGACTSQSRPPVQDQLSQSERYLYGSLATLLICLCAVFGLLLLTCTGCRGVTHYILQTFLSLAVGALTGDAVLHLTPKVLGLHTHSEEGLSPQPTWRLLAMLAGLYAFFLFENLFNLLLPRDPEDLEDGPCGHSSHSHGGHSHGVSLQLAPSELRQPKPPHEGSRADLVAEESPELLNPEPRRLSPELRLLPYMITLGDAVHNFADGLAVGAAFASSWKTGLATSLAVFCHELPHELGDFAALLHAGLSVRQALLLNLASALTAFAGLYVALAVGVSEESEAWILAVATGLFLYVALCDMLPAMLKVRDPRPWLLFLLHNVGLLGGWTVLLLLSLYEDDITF

[2] = target: T2, human ZIP12 on human ZIP12 expressing transfectant cells (human, UniProt Q504Y0 1-691); test: as above
T2 construct: Zinc transporter; also called ZIP12 transfected cells

[3] = target: T3, human ZIP4 extracellular domain GST fusion (human, UniProt Q6P5W5 23-327); test: ELISA-based reactivity screening, 63A11 lineage (FIG. 6)
T3 construct: also called hZIP4-ECD-GST; huZIP4-ECD-GST; not shown: glutathione S-transferase (GST) fusion partner
T3 sequence: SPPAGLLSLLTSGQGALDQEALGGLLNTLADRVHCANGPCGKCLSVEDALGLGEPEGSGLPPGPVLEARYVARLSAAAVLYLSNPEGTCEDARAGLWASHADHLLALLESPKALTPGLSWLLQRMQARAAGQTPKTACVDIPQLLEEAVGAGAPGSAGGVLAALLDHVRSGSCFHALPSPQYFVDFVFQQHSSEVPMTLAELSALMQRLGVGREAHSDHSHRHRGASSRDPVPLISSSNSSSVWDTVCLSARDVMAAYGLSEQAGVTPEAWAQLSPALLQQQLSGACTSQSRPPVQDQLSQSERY

[4] = target: T4, human ZIP12 extracellular domain expressed as a GST fusion protein (human, UniProt Q504Y0 1-202); test: as above
T4 construct: also called hZIP12-ECD-GST; huZIP12-ECD-GST; not shown: glutathione S-transferase (GST) fusion partner

[5] = target: T3, human ZIP4 extracellular domain GST …; test: ELISA-based reactivity screening, 51B12 lineage (FIG. 9)
[6] = target: T4, human ZIP12 extracellular domain …; test: as above

binding result [1]: no binding
binding result [2]: binds
binding result [3]: no binding
binding result [4]: binds
B1: 63A11 parental antibody (antibody, human IgG1, kappa, V domains shown)
VH: EVQLVESGGGLVKPGGSRKLSCAASGFTFSDHGMHWVRQAPEKGLEWVAYISSGSSAIFYADTVKGRFTMSRDNAKNTLFLQMTSLRSEDTAMYFCARWTNLYAMDYWGQGTSVTVSS
VL: DIVLTQSPASLAVSLGQRATISCRASKSVSTSGYSYMHWYQQKPGQPPKLLIYLASNLESGVPARFSGSGSGTDFTLNIHPVEEEDAATYYCQHSRELPLTFGAGTKLELKR
notes: the full chains it gives are the chimeric ones; also called 19214; parent antibody

binding result [5]: no binding
binding result [6]: binds
B2: 51B12 parental antibody (antibody, human IgG1, kappa, V domains shown)
VH: B1 VH with H32Y, S55G, S56T, A57T, F59Y, M70I, F95Y
VL: B1 VL with L50F, L98V, L100Y, A104G, L110I
notes: also called 19213; parent antibody
